assay: soluble on expression in E. coli; label from the status in PepcDB or PDB records

Sequence	soluble on expression in E. coli
MERMRSIWKGSIAFGLVNVPVKVYSATEDHDIRFHQVHAKDGGRIKYNRVCSECGNVVQYADIDKAYDSDDGVRVVLTDDDFGKLPAAEKHEIPVLQFVPTEQIDPILFEKSYFLEPDSSSPKAYVLLATALENSDRTALVHFTLRQRTRLAAMRSRDGVLVIQTLLWPDEVRVAEFSSLDGVDK	not soluble
MERNELFDLQTLSTRRKIIDRIQVTRMNTGKVDLKTSEFFEQQETQTRSKKKYIWSTGKSKLRRHFFVNRTLPTMKQH	not soluble
MERRLIFGTIASKMSLAPEADLDSLIIRNDSLSGAVIAAIMQEAGLRAVRKNRYVILQSDLEEAYATQVKTDNTVDKFDFYK	soluble
MERVNHLLQRLLGNQRFKQRYEQMKRYILEHPDVQPFLRAHERQLSADAVDRSLMKLYEFIEQHGNCRQCPGLERCNNMLPGYHPNLVVNGGRIDVEYDRCPKKVQHDERKRQESLIQSMFMPREILRASLSDVDLNDDGRIKAIRFAERFVAEYEPGKKMKGLYLHGSFGVGKTYLLAAIANELAKRNVSSLIVYVPELFREIKHSLQDQTMNEKLDYIKKVPVLMLDDLGAEAMSSWVRDDVFGPILQYRMFENLPTFFTSNFDMQQLAHHLTYSQRGEEEKVKAARIMERIRYLAYPIEITGPNRREQNI	not soluble
MERVPLLPRRFSARPQGNQEAQERTAVKCEQVRYAIQEVIGRGAFGEVSSAEVVGTRDLVAIKRVIHDGRLRQRELTLMRDHLGPNTQQGGVSSLDVGNGVGAHATSVTGSNGEEANGTTAIDGLESWNMPTIVPYHPCVVKLLDHFFASDPSGVQYLFMVMDYIPLDVRRLHHMFLRQREQQMPIILVKVIMFQLARALAFLHARGICHRDVKPNNILVDQETGVVKLCDFGSAKKMQAVGGEGPREKNVPYIFSRYYRAPELLLGSQYYHFHVDMWAFGCVLAELLCGKVLFKGSSSTMDQLVEIIKVLGKPSERELFALNPQSAGSALIRTWGDSHNASQLSPTPSGPLPSSNSANADYMQRRSAPRVKSLLWVEVLPPNTSQAALSLIEQLLRYTPEERLTSAEVLEHVFFDELFSDDARLPNGAPLPASMFQVTREEAEILPPWLLERMAAAEGVAKG	soluble
MESCLDIFKIVIGPSSSRTVGPMRAACHFISLLREQETLPLIREIEIELYGALSLSRKCHNVDTALYLGLLGCQPENVDLRSYMAVIKRAENENKIELPLSDAGGITIKVKIIANHQAHPGHPYAMTFRARDDYFTVYEETWFSTGAGQVRKHGEPLTPSLPLRTVSPFEFSHAAQLLALCRRNGLSVAALMMKNELCRHSPQTLQNYLAQIWDVMQQAVYRGLHTEGVLPGPYQVPRRACALHKTLQANRSASDFLTALNWVNAFAIAVSEENASGGQIVTAPTNGACGIIPAALCWYDKFVTPLEPGALTRFFLTAAAIAMLFKQNASILGSEVGCQGEIGVACSMAAAGLAELMGASVEQTLSAAEIAMEHHLGLTCDPLGGQVQIPCIERNAISAVKAINAATMAMSRVSEPCISLDEIIAAMYETGKDMSAKYRETYHGSLGKIQPRKRG	not soluble
MESGFTACISIITGVKSIYRWKNNIEENQEIMCFFKTAEDTSSHSLYRGVITSS	not soluble
MESKNKNGDYVIPDSVKNYDGEPLYILVSLWCKLQEKWISRNDIAEAFGINLRRASFIITYISRRKEKISFRVRYVSYGNLHYKRLEIFIYDVNLEAVPIESPGTTGPKRKTYRVGNGIVGQSNIWNEMIMRRKKES	not soluble
MESRKLISATDIQYSGSLLNSLNEQRGHGLFCDVTVIVEDRKFRAHKNILSASSTYFHQLFSVAGQVVELSFIRAEIFAEILNYIYSSKIVRVRSDLLDELIKSGQLLGVKFIAAL	soluble
MESTIEGEDENYVKVYITDNLDSEHELTIDKNSGDIPYHQCDAYADDANRRTSEENEYNNQARRYAKYYVFAQRGYDTVEHIENPAYVDAVRRAIADLSPAEFKRYFGALYRQLRSHHDDTERPRELPSGVRKPDAVVYEPEIYLGLEAVGEDVAERAQALATAHGFDLEESAEVQPVSELSDETLSRWKAFGDDLAAIVTREDLTTNLTITGVSGLHIGYPNRLGKHEVDEADSPFTHQADARLSLLPYAPESFDEFPAYLDHHLRCQVRDCFLKMGVVPPEEFHVVGFGKFRDSRRYDHFEMYPEVHKRDGNHTPLLG	not soluble
METASITEWTFVQEVPIPEDVANLMVPGEDAVVAFKTFRDSAIFTTKRLIVRDSQGLRGKKVEVYSLPYSSVNMWSTENAGTFDFNAEVELWTRAGKIKIKIGRDLDVRRLDMLLAQCILG	not soluble
METNRPSPDALLVNLQEEADSSVGKLKIYFGFAAGVGKTYAMLSDAKDQLAAGVDVVAGYIEPHAREETLRMLEGIPIIPPKAINHKNIALKEFDLDEALKRKPELILVDELAHTNASGVRNKKRFQDVEELLQAGIDVYTTVNVQHIESLNDIVEGITKVAVRETIPDYVFDEADRVKLIDIEPDELLKRLEQGKIYQPARAKTAMQNFFTRENLKLLREIAMRKAADRI	not soluble
METPSSAKRVTRSQAISAINDSDSDFKVPFSSSNKTEDSSIDQRKEEDRSALIDITNDSPIVGLTMQTPPSGFMVKRKSSRIKITPGSGEALLRGQVKTLLHKVEEGTELIHSIKTRPFIHLVTSPMRLLAPTPANTPQFPNFSDDDVKIKIASPIVAGNLRTSQISEEKEDKRMKKMNVETNQAEFAGKHNRFLYNSEDDEIVEAKEVLHLKGIPTPRGKHFRFATQEE	soluble
METQDVVAKHYDELASEDRATRKSSKILSLRNLNNWVKSVLIALHTRPGYSVLDLACGKGGDLQKWQSQQITQYVGCDISKESLKTAQQRYQQLKKCTFTAQFLCGDCFSCRLSRYLEPDRNFHIVSCQFSMHYAFSCEEKVRRLLENVTERLVAGGFFIGTIPDSNVLVRKLRASSGLEFGNEFYRVVFDDSSSKTFTKPFGIRYHFYLESSVLDIPEYLVVMPVFEKLAKGYGLELQLVMNFHEFITMYLSAGSPFISLFHRMNILQDGGLSPEFWDTAYLYTVFAMKKQGASPWLGLSPESISYVDNTSFERKVIVMMDDEELDSERITFVDKEWNEMIPKRIKLQK	soluble
METQEKKFVPASKQIPTVNSGWLDRELGEAMSEAVRACLAHGKQSEITVKLKIQPQNIQSGTVKISHDVATKLPKEKREGGIVFATPDGNIQADDPAQGKLKLKQVSNTSSTLKMVRSN	not soluble
METTKTNVLEAGAKVLQSNGPVGKLDIYLVGFHPMKDAPEQQMEAHHYCQQVNQDLAQCALYDGNTAEANLTGIEYIISESLFAQLPAQERAFWHPHNGEILSGQLSAPNLPLVAEKELMRSKMNSYGKTWHTWHSRKGTAPGDTLPLGEPMLAWSFSRDGEIQQPLIEQRDKAVTISTAERRADRKDLTELAKPQHGVDALHRHFPEATPIPGVVDAEATAQLEHHHHHH	soluble
MEVFLLKLDSKNCPNKRLKTLEEVPENTAITVGNFDGVHLGHRYLIENLKKKAKSENLKTLVLTFCPHPLKVLAPQLLPCELTDINEKIEIFRELGVDYLCFIRFDKEFAKIRAREFLEKIIYEKLKCRYLLVGYDWRYGYRREGEIELAKEVGSELGFEVEEAKPFKIKGHIVSSTLIRRLLREGRVEEVREYLGHNYWVKRKVVKGDQRGSKIGFPTANLQNTENLCLKEGVYAVKVEDKYLGVANYGYRPTFGKKKRVLEVHILDFEGNLRGKRIKVEFLKFIREEKKFSSVEELIQQIKKDVEAVKGLSKLEHHHHHH	soluble
MEVLKVASNSNPNKVAGALAGVIREKGKAELQAIGAGAVNQAVKAIAIARGYLAPSGINLVCVPAFAEVQINGETRTAIKFIVFPKD	not soluble
MEVLLTETFYTIGRSPRADIRIKSQFVSRIHAVLVRKSSDDVQAAYRIIDGDEDGQSSVNGLMINGKKVQEHIIQTGDEIVMGPQVSVRYEYRRRDQFGTMLEHHHHHH	not soluble
